Measurements as given in patent publication US20220332804A1 (CSL INNOVATION, published 2022).

What was measured:
Assay in all cases: SPR, antibody captured, C2 as analyte;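 further: biacore SPR at 37 °C, anti-C2 mAbs captured via goat anti-human IgG on CM5 chips, double-referenced sensorgrams fit to a 1:1 kinetic or steady-state model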
human C2 G707A = biological target: T1, human C2 G707A (human, UniProt P06681 21-752)
T1 sequence: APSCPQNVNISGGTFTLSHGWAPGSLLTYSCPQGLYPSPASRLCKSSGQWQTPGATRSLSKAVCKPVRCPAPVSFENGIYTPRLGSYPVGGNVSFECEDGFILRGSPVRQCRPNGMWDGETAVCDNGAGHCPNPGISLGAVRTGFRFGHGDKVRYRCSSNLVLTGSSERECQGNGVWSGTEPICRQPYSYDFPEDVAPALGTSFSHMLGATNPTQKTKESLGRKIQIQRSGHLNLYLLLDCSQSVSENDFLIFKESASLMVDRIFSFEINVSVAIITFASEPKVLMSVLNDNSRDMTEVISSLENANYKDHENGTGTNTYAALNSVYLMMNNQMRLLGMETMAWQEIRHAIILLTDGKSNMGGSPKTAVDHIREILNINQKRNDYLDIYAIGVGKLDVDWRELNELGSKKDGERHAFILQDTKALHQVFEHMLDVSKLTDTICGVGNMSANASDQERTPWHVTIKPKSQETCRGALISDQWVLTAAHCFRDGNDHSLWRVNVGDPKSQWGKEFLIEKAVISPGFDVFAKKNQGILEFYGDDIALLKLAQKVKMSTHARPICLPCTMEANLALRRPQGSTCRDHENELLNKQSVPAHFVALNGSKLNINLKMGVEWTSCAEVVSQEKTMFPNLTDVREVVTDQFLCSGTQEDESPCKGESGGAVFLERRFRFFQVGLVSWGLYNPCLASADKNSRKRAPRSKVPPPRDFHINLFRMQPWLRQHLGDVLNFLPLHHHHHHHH

human C2 P723A = biological target: T2, human C2 P723A (human, UniProt P06681 21-752)
T2 sequence: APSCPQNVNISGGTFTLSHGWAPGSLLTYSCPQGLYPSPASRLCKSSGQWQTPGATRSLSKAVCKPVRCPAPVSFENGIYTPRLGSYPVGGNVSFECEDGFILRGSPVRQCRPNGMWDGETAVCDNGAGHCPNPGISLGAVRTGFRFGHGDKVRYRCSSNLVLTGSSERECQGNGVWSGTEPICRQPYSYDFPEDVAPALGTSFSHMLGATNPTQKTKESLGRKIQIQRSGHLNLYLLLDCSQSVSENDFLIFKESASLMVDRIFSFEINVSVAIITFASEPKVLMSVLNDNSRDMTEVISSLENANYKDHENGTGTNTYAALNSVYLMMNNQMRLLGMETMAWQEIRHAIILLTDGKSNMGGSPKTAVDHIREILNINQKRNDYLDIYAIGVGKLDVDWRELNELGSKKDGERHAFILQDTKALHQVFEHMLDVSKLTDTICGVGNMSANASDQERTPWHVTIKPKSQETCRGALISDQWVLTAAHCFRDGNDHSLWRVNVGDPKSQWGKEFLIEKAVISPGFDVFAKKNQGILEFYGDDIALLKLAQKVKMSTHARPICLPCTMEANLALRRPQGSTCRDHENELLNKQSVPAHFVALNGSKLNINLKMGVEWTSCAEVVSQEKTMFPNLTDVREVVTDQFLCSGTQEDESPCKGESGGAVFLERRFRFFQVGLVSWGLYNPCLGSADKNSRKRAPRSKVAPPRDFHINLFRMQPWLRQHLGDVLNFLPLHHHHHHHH

human C2 P724A = biological target: T3, human C2 P724A (human, UniProt P06681 21-752)
T3 sequence: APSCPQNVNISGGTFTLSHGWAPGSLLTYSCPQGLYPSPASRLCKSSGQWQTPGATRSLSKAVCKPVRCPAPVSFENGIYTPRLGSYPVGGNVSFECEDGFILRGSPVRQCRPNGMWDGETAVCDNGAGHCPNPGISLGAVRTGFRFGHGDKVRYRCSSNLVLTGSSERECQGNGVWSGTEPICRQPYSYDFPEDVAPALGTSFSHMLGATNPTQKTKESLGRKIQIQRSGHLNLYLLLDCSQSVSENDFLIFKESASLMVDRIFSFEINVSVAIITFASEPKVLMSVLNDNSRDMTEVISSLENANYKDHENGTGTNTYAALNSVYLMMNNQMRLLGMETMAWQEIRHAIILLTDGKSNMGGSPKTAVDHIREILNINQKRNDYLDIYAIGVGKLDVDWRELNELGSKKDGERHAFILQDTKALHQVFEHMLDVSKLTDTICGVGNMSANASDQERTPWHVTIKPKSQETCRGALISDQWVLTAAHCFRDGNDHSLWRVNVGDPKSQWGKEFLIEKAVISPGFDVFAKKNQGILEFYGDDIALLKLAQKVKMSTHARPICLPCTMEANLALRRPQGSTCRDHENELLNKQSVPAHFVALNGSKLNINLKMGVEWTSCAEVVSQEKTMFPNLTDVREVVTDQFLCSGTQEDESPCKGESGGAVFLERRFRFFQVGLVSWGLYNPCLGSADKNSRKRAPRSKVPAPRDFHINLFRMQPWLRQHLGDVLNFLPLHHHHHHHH

human C2 N325A = biological target: T4, human C2 N325A (human, UniProt P06681 21-752)
T4 sequence: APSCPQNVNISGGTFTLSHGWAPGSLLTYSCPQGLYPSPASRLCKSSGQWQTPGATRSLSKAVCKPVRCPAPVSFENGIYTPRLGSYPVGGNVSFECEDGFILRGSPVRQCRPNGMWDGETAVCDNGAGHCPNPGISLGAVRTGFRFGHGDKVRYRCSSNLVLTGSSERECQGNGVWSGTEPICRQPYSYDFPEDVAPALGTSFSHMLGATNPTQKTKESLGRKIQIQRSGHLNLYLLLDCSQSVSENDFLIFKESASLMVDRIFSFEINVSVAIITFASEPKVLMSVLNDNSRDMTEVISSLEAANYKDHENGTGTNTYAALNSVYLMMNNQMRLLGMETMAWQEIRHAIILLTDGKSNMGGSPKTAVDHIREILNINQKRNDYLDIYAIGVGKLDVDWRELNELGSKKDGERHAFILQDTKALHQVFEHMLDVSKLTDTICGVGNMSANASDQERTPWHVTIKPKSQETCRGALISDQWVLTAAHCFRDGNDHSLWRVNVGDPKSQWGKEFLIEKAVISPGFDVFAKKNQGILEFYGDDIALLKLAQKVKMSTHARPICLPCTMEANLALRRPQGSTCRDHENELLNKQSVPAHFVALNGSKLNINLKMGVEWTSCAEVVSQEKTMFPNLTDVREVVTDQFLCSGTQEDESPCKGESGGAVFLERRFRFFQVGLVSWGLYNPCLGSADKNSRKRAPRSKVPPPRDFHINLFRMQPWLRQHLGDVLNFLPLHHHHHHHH

B1: RF16-226 (antibody, human IgG4 S228P, lambda)
heavy: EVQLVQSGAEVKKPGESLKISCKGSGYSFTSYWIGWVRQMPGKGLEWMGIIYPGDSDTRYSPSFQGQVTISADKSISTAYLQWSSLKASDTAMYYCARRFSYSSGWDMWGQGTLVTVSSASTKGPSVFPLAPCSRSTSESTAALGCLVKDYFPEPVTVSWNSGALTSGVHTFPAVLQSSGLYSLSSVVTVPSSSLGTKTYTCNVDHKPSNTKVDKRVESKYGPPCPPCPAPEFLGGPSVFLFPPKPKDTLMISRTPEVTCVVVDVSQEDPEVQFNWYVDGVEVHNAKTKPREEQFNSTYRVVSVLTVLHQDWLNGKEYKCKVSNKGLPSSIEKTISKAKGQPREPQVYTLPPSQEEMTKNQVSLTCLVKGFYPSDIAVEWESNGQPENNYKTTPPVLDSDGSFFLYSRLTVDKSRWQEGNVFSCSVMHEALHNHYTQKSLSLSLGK
light: SYELTQPPSVSVSPGQTARITCSGDALTSKYVAWYQQKSGLAPLLVIYEDTRRPSGIPAKFSGSSSGSVATLTISGAHGDDEADYYCYSTDASGHQRVFGGGTKLTVLSQPKAAPSVTLFPPSSEELQANKATLVCLISDFYPGAVTVAWKADGSPVKAGVETTKPSKQSNNKYAASSYLSLTPEQWKSHRSYSCQVTHEGSTVEKTVAPTECS
notes: pH-dependent anti-C2 antibody from a phage display library; also called WT
- Kd (human C2 G707A): 19.4 nM
- Kd (human C2 P723A): 122 nM
- Kd (human C2 P724A): 397 nM
- Kd (human C2 N325A): 51.3 nM
